Results from patent US20260234247A1.

Key:
[1] = molecular target: Cynomolgus LILRB2 on CHOK1 cells (cynomolgus); assay: flow cytometry on CHOK1-cyno LILRB2 cells
[2] = molecular target: Rhesus LILRB1 (NP_001035762.2) protein (rhesus macaque) (UniProt F7H3G7); assay: ELISA on rhesus LILRB1 (NP_001035762.2) protein
[3] = molecular target: Rhesus LILRB1 (NP_001035762.2) on CHOK1 cells (rhesus macaque) (UniProt F7H3G7); assay: flow cytometry on CHOK1-rhesus LILRB1 (NP_001035762.2) cells
[4] = molecular target: Rhesus LILRB1 (NP_001035762.2) on CHOK1 cells (rhesus macaque) (UniProt F7H3G7); assay: cell based blocking assay on CHOK1-rhesus LILRB1 (NP_001035762.2) cells; blocked ligand not named

Row | Binder | EC50 [1] [nM] | EC50 [3] [nM] | also measured
1 | LK-RB2-30 (antibody, human IgG4 S228P, kappa, V domains shown) VH: EVQLVESGGGLVQPGGSLKLSCAASGFTFNTDGMSWVRQTPDKRLELVAIINSNGGSTYYPDSVKGRFTISRDNAKNTLYLQMSSLKSEDTAMYYCAREGSYGSWFAYWGQGTLVTVSA VL: DIQMTQSPASLSVSVGETVTITCRASENINNNLAWYHQKQGKSPQLLVYAATNLADGVPSRFSGSGSGTQYSLKINSLQSEDFGSYYCQHFWGTPFTFGGGTKLEIKR | 1.04 |  | 
2 | LK-RB2-32 (antibody, human IgG4 S228P, kappa, V domains shown) VH: DVQLQESGPGLVKPSQSLSLTCSVTGYSITSGYYWNWIRQFPGNKLEWMGYISFDGSNHYNPSLRNRISITRDTFKNQFFLKLNSVTTEDTATFYCTRRDYNWFAYWGQGTLVTVSA VL: DIVLTQSPVTLSVTPGDSVSLSCRASQNINKNLHWYQQRSHESPRLLIKYVSQSISGIPSRFSGSGSGTDFTLSINSVETEDFGMYFCQQSNSWPLTFGAGTKLELRR | 5.72 |  | 
3 | LK-RB2-25 (antibody, human IgG4 S228P, kappa, V domains shown) VH: QVQLKESGPGLVAPSQSLSITCTVSGFSLTSYGVHWVRQPPGKGLEWLGVIWAGGSTKYNSALMSRLSINKDNSKSQVFLKMNSLQTDDTAMYYCARDQMVRSAMDYWGQGTSVTVSS VL: DIQMIQSPSSMFASLGDRVSLSCRASQGIRGNLDWYQQKPGGTIKLLIYSTSNLNSAVPSRFSGSGSGSDYSLTISNLESEDFADYYCLQRNASPYTFGGGTKLEIKR | 1.48 |  | 
4 | LK-RB2-26 (antibody, human IgG4 S228P, kappa, V domains shown) VH: QVQLKESGPGLVAPSQSLSITCTVSGFSLTSYGVHWVRQPPGKGLEWLGVIWAGGSTDYNAAFISRLNISKDISESQVFFRMNSLQTDDTAMYYCARDQMVRSAMDYWGQGTSVTVSS VL: DIQMIQSPSSMFASLGDRVSLSCRASQGIRGNLDWYQQKPGGTIKLLIYSTSNLNSAVPSRFSGSGSGSDYSLTISNLESEDFADYYCLQRNASPYTFGGGTKLEIKR | 2.11 |  | 
5 | LK-RB2-31 (antibody, human IgG4 S228P, kappa, V domains shown) VH: QVQLQQPGAELVKPGASMKLSCKASGYTFTTYYMYWVKQRPGLGLEWIGGINPSNGGTTFNEKFKNKATLTVDKSSSTAYMQLRSLTSEDSAVYYCTRWRFFDVWGAGTTVTVSS VL: SIVMTQTPEFLLVSAGDRVTITCKASQSVNNDVAWFQQKPGQSPKLLIYYASNRYTGVPDRFTGSGYGTDFTFTISTVQAEDLAIYFCQQDYSSPPTFGGATKLEIKR | 1.59 |  | 
6 | LK-RB1-11 (antibody, human IgG4 S228P, kappa, V domains shown) VH: QVTLKESGPGILQPSQTLSLTCSFSGFSLKTSGMSVGWIRQPSGKGLEWLAHIWWNDDKYYNPVLKGRLTISKDTSNNLVFLKIASVVSTDTATYYCVRYGNSHGYWYFDVWGTGTTVTVSS VL: NIVLTQSPASLAVSLGQRATISCRASESVDSYGNNFIHWYQQKPGQPPKVLIYYASNLEAGVPARFSGSGSRTDFTLTIDPVEAEDAATYYCQQNNEDPYTFGGGTKLEIER |  |  | EC50 [2]: 0.08 nM
7 | LK-RB1-50 (antibody, human IgG4 S228P, kappa, V domains shown) VH: QVQLKQSGPGLVQPSQSLSITCTVSGFSLTSYGVHWVRQSPGKGLEWLGVIWRGGNTDYNAPFVSRLSITKDNSQSQVFFKMNSLEADDTAIYYCAKNSLDVYSSWYFDVWGTGTTVTVSS VL: QIVLSQSPAILSAFPGEKVTMTCRASSSVSFMHWYQQKPGSSPKPWIYATSNLASGVPARFSGSGSGTSYSLTISRVEAEDAATYYCQQWSSNPLTFGAGTKLELKR |  | 11.2 | EC50 [4]: 5.68 nM; Top Inhibition (%) [4]: 57.8%
8 | LK-RB1-56 (antibody, human IgG4 S228P, kappa, V domains shown) VH: QVQLKQSGPGLVQPSQSLSITCSVSGFSLTNYGVHWVRQSPGKGLEWLGVIWRGGSTDNNAAFMSRLSITKDNSKSQVFFKMNSLQADDTAIYYCAKNSDFYGSSWYFDVWGTGTTVTVSS VL: QIVLSQSPAILSASPGEKVTMTCRASSSVSFMHWYQQKPGSSPKPWIYATSNLASGVPARFSGSGSGTSYSLTISRVEAEDAATYYCQQWSRNPPTFGAGTKLELKR |  | 29.2 | EC50 [4]: 2.42 nM; Top Inhibition (%) [4]: 15.9%
9 | LK-RB2-27 (antibody, human IgG4 S228P, kappa, V domains shown) VH: DVKLVESGGGLVKPGGSLKLSCAASGFTFSSYSMSWVRQTPEKRLEWVATISTGGSYTYYPDSVKGRFTISRDNAKNTLYLQMSSLKSEDTAMFYCTRGSMDYWGQGTSVTVSS VL: DILMTQSPSSMSVSLGDTVSITCHASQDISSNIGWLQQKPGNSFKGLIYHGTNLEDGVPSRFSGSGSGADYSLTISSLESEDFADYYCVQYAQFPYTFGGGTKLEIKR | 2.14 |  | 
10 | LK-RB2-34 (antibody, human IgG4 S228P, kappa, V domains shown) VH: DVKVVESGGGLVKPGGSLKLSCAASGFTFSSYSMSWVRQTPEKRLEWVATISTGSSYTYYSDSVKGRFTISRDNAKNTLYLQMSSLKSEDTAMFYCTRGSMDYWGQGTSVTVSS VL: DILMTQSPSSMSVSLGDTVSITCHASQDISSNIGWLQQKPGNSFKGLIYHGINLEDGVPSRFSGSGSGADYSLTISSLESEDFADYYCVQYAQFPYTFGGGTKLEIKR | 2.3 |  | 
11 | LK-RB2-28 (antibody, human IgG4 S228P, kappa, V domains shown) VH: DVKLVESGGGLVKPGGSLKLSCAASGFTFSSYSMSWVRQTPEKRLEWVATISTGGSYTYYPDSMKGRFTISRDNAKNTLYLQMSSLKSEDTAMFYCTRGSMDYWGQGTSVTVSS VL: DILMTQSPSSMSVSLGDTVSIACHASQDISSNIGWLQQKPGNSFKGLIYHGTNLEDGVPSRFSGSGSGADYSLTISSLESEDFADYYCVQYAQFPYTFGGGTKLEIKR | 2.03 |  | 
12 | LK-RB2-29 (antibody, human IgG4 S228P, kappa, V domains shown) VH: QVQLQQSGAELARPGASVKLSCKASGYTFTSYWMQWVKQRPGQGLEWIGAIYPGDGDTRYTQKFKGKATLTADKSSSTAYMQLSSLASEDSAVYYCARGYYGSSYADYFDYWGQGTTLTVSS VL: DIQMTQSPASLSASVGETVTITCRASGNIHNYLAWYQQKQGKSPQLLVYNAKTLADGVPSRFSGSGSGTQYSLKINSLQPEDFGSYYCQHFWSTPPTFGGGTKLEIKR | 2.09 |  | 
13 | 15G8 (antibody, human IgG4 S228P, kappa, V domains shown) VH: DVQLQGSGPGLVKPSETLSLTCSVTGYSITSGYYWNWIRQFPGKKLEWMGYISYDGSNNYNPSLKNRITISRDTSKNQFSLKLNSVTAADTATYYCAHGYSYYYAMDAWGQGTSVTVSS VL: DIQMTQSPSSLSASVGDRVTITCRTSQDISNYLNWYQQKPGKAVKLLISYTSRLHSGVPSRFSGSGSGTDYTLTISSLQPEDFATYYCQQGNTLPTFGQGTKLEIKR |  | 24.1 | EC50 [4]: 4.56 nM; Top Inhibition (%) [4]: 88.1%
14 | LK-RB2-42 (antibody, human IgG4 S228P, kappa, V domains shown) VH: EFQLQQSGPELVKPGASVKISCKASGYSFTDYNMNWVKQSNGKSLDWIGIINPKYGTTAYNQKLRDKATLTVDQSSSTAYMQLNSLTSEDSAVYYCASLNWDEGFAYWGQGTLVTVSP VL: DVLMTQTPLSLPVSLGDQASISCRSSQSIVHSNGNTYLEWYLQKPGQPPKLLIYKVSNRFSGVPERFSGSGSGTDFTLKINRVEAEDLGVYYCFQGSLVPPTFGGGTKLEIKR | 2.86 |  | 
15 | LK-RB1-5 (antibody, human IgG4 S228P, kappa, V domains shown) VH: QVQLQQPGAELVKPGASVKLSCKASGYTFTDFWIHWVKQRPGQGLEWIGMIHPNSGSTNFNEKFRAKATLTVDKSSSTAYMRLSSLTSEDSAVYYCARSGDGYSNPMDYWGQGTSVTVSS VL: QIVLSQSPAILSASPGEKVTLTCRASSSVSYMHWYQQKPGSSPKPWIYATSNLASGVPVRFSGSGSGTSYSLTISRMQTEDAATYYCQQWRRSPYTFGGGTKLEIKR |  | 1.08 | EC50 [2]: 0.05 nM
16 | LK-RB1-58 (antibody, human IgG4 S228P, kappa, V domains shown) VH: QVQLKQSGPGLVQPSQSLSITCTVSGFSLTTYGVHWVRQSPGKGLEWLGVIWRGGSTDYNAAFMSRLSITKDNSKSQVFFRMNSLQADDTARYYCAKNSLYYGSSWYFDVWGTGTTVTVSS VL: QIVLSQSPAILSASPGEKVTMTCRASSSVSFMHWYQQKPGSSPKPWIYATSNLASGVPARFSGSGSGTSYSLTISRVEAEDAATYYCQQWSSNPPTFGGGTKLEIKR |  | 158 | EC50 [4]: 1.42 nM; Top Inhibition (%) [4]: 45.4%
17 | LK-RB1-51 (antibody, human IgG4 S228P, kappa, V domains shown) VH: QVQIQQSGAELVKPGASVKLSCKASGYTFTEFPIHWIKQRSGQGLEWIGWFYPGSDNMNYNEKFKDKATLTADKSSSTVYMELSRLTSEDSAVYFCARHENAYFYAMDYWGQGTSVTVSS VL: ENVLTQSPAIMSASLGEKVTMSCRASSSVNYMYWYQQKSDASPKIWIYYTSNLAPGVPARFSGSGSGNSYSLTISSMEGEDAATYYCQQFTSSPFTFGTGTKLEIKR |  | 21.4 | EC50 [4]: 0.87 nM; Top Inhibition (%) [4]: 64.9%
18 | LK-RB2-41 (antibody, human IgG4 S228P, kappa, V domains shown) VH: EVQLQLSGPELVKPGASVKMSCKASGYTFTDYNMHWVKQSHGKSLEWIGYINPNNGGTTYNQKFKGKATLTVNKSSSTAYMELRSLTSEDSAVYYCARAPYYGSSYLLAYWGQGTLVTVSA VL: DIVMTQSHKFMSTSVGDRVSITCKASQDVSTAVAWYQQKPGQSPKLLIYSASYRYTGVPDRFTGSGSGTDFTFTISSVQAEDLAIYYCQQHYSIPWTFGGGTKLEIKR | 1.5 |  | 
